In paper PMC9182292:

Target: human 6His-14-3-3ζ (human) (UniProt P63104)
Assay: pull-down; 6His-14-3-3ζ (0.1 mg) immobilised on Ni-NTA resin, 300 μL lysate of HEK293 cells expressing SNAP-TM reporters overnight at 4°C, 1% Triton X-100 in PBS with 25 mM imidazole; blot for the SNAP-tag, amount pulled down normalised to CT_(598-910), CT_(731-910) or untreated control; in some samples cells were treated before lysis with staurosporine (three hours) or more specific kinase inhibitors

UniProt P63104, sequence (P63104 whole entry): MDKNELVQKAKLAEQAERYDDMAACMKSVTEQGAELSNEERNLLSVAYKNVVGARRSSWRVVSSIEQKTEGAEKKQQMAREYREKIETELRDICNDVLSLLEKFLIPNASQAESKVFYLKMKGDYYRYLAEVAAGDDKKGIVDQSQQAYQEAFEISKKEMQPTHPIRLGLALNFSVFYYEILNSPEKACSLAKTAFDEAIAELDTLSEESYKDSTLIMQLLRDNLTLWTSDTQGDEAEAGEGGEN

Substance	fold of reporter pulled down compared to CT (598-910) [fold]	further results
SNAP-TM-HCN1CT reporter CT_(731-910) (from UniProt O88704 731-910) (domain or fragment)	1.39	fold of reporter pulled down from cells treated with the PKC inhibitor bisindolylmaleimide I compared to untreated control: 0.61 fold; fold of reporter pulled down from cells treated with the p38MAPK inhibitor PD 169316 compared to untreated control: 0.61 fold; fold of reporter pulled down from staurosporine-treated cells compared to untreated control: 0.26 fold
SNAP-TM-HCN1CT reporter lacking the distal 30 amino acid block with the TRIP8b-tripeptide binding site (from UniProt O88704 598-880) (domain or fragment)	1.18	
SNAP-TM-HCN1CT reporter serially truncated to also lack the region containing peptide B (residues 790-820) (from UniProt O88704 598-790) (domain or fragment)	0.23	
SNAP-TM-HCN1CT reporter CT_(731-910; Δ804–814; Δ861–871) (from UniProt O88704 731-910) (domain or fragment)		fold of reporter pulled down compared to CT (731-910): 0.26 fold
SNAP-TM-HCN1CT reporter with loss of residues 803-910 (from UniProt O88704 598-802) (domain or fragment)	0.2	
SNAP-TM-HCN1CT reporter CT_(731-910; S810A; S867A) (from UniProt O88704 731-910) (domain or fragment)		fold of reporter pulled down compared to CT (731-910): 0.33 fold
SNAP-TM-HCN1CT reporter serially truncated to lack the region containing peptide C (amino acids 850-880) (from UniProt O88704 598-850) (domain or fragment)	0.61	
